Data: patent US20220229068A1, “DETECTION OF PROTEIN TO PROTEIN INTERACTIONS” (THE GOVERNING COUNCIL OF THE UNIVERSITY OF TORONTO, priority 2019, published 2022)

Tests used:
Assay in all cases: SIMPL ELISA, bait-IN/prey-CIC
[1] = molecular target: SMAD4 (prey, CIC format) (human) (UniProt Q13485)
[2] = molecular target: CXCR2 (prey, CIC format) (human) (UniProt P25025)
[3] = molecular target: T1, MAP2K5 (prey, CIC format) (human) (UniProt Q13163)
T1 sequence (looked up): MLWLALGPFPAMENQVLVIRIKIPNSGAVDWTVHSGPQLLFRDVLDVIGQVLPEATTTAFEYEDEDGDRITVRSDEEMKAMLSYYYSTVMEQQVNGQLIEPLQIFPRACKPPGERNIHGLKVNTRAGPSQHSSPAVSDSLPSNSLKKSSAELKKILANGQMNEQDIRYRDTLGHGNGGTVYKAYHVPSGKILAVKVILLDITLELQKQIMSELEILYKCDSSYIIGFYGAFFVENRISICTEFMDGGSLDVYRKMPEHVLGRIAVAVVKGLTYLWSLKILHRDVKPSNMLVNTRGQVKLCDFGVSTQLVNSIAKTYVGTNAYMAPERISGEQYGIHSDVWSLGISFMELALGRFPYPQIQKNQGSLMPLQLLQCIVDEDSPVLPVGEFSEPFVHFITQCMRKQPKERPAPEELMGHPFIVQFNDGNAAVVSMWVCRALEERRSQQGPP

[4] = molecular target: T2, ORC4 (prey, CIC format) (human) (UniProt O43929)
T2 sequence (looked up): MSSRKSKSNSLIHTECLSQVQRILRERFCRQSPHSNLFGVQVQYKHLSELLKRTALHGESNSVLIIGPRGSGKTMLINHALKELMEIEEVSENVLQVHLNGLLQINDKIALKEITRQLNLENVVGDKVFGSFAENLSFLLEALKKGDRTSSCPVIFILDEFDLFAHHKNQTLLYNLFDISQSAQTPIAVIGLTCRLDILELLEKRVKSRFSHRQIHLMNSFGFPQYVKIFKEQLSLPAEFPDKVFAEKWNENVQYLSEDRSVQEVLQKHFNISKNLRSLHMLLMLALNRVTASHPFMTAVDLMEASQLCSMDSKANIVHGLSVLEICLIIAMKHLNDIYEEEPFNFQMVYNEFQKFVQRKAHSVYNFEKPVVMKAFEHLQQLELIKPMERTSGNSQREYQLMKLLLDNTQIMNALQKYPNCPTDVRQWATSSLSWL

[5] = molecular target: T3, NTF4 (prey, CIC format) (human) (UniProt P34130)
T3 sequence (looked up): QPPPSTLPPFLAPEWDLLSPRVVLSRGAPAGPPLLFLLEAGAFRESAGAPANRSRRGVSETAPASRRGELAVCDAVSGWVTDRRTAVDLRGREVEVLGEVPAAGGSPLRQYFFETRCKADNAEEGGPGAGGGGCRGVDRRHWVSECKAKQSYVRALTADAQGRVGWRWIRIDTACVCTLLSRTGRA

[6] = molecular target: T4, MAD1L1 (prey, CIC format) (human) (UniProt Q9Y6D9)
T4 sequence (looked up): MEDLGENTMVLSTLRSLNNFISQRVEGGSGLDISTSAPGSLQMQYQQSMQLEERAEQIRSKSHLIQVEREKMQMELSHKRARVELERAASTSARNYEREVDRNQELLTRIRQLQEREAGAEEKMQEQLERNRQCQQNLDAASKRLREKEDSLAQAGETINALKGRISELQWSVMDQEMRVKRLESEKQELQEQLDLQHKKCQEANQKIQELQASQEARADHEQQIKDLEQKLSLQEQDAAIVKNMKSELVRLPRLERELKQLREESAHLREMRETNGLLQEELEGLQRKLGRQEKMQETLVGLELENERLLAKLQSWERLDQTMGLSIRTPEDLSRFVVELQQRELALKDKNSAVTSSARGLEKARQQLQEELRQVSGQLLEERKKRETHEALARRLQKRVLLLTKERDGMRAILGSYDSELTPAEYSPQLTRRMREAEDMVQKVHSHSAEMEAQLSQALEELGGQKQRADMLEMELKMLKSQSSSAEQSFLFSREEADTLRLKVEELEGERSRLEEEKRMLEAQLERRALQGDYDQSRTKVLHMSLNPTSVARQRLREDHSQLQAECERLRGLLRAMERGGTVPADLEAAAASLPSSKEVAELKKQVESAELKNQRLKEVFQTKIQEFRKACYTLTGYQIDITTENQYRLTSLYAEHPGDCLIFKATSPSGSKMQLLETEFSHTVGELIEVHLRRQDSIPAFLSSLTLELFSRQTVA

[7] = molecular target: NFE2L1 (prey, CIC format) (human) (UniProt Q14494)
Chain of NFE2L1 (prey, CIC format) (human) (Q14494 whole entry): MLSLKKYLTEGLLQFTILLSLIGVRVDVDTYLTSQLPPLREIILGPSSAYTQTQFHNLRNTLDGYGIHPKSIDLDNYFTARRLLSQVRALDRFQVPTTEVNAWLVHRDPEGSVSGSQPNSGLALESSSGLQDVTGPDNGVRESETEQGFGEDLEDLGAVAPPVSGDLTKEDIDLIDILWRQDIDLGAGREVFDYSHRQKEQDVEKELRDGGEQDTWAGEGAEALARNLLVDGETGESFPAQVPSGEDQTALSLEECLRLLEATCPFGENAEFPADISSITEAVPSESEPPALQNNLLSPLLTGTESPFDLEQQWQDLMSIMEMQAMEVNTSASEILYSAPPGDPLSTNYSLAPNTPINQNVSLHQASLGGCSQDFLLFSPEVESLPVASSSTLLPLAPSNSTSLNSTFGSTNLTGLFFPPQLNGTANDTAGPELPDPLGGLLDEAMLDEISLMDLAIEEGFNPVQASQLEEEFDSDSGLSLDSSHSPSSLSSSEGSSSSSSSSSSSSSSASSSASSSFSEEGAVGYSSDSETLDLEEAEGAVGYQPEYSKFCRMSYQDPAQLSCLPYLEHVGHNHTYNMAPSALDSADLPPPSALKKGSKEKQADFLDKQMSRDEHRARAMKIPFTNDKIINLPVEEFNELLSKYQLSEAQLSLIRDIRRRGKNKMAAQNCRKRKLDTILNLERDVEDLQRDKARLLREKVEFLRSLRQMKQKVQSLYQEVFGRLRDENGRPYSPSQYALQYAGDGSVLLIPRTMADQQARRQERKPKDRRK

[8] = molecular target: RAN (prey, CIC format) (human) (UniProt P62826)
[9] = molecular target: T5, CASP7 (prey, CIC format) (human) (UniProt P55210)
T5 sequence (looked up): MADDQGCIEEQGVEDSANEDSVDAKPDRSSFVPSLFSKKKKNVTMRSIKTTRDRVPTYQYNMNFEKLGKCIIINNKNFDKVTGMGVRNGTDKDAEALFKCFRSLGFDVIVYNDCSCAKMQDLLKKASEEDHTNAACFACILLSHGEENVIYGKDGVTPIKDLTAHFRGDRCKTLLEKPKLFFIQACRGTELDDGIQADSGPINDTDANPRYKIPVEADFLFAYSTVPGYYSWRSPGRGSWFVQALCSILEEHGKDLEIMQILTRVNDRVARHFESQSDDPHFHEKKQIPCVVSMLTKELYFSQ

[10] = molecular target: BTRC (prey, CIC format) (human) (UniProt Q9Y297)
Chain of BTRC (prey, CIC format) (human) (Q9Y297 whole entry): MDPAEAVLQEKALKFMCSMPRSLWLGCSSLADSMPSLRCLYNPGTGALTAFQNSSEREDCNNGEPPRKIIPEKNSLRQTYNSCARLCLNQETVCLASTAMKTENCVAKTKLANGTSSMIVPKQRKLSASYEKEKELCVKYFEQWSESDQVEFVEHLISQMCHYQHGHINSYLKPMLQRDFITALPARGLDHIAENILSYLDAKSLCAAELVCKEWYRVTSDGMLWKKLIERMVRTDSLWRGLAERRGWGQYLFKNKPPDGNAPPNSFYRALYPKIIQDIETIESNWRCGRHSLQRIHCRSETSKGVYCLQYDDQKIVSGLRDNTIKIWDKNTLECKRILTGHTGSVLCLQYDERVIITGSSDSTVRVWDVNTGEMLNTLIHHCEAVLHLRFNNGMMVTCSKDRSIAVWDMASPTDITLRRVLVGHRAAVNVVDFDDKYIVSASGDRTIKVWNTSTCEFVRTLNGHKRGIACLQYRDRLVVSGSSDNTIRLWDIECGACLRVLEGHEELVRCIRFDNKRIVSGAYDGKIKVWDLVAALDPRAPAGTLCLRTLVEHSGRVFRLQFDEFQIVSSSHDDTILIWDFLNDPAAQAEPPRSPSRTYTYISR

[11] = molecular target: SKP2 (prey, CIC format) (human) (UniProt Q13309)
Chain of SKP2 (prey, CIC format) (human) (Q13309 whole entry): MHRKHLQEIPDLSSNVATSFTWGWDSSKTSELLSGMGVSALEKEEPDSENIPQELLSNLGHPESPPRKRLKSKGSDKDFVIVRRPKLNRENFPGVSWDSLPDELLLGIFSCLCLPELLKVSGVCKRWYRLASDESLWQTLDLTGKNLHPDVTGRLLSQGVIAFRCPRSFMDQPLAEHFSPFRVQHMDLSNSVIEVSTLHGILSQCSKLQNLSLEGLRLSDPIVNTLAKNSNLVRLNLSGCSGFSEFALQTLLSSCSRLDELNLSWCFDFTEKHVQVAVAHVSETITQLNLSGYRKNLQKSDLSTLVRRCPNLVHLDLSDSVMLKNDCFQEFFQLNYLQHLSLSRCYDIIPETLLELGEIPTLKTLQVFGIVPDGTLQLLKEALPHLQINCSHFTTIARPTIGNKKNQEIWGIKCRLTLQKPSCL

Chain of CXCR2 (prey, CIC format) (human) (P25025 whole entry): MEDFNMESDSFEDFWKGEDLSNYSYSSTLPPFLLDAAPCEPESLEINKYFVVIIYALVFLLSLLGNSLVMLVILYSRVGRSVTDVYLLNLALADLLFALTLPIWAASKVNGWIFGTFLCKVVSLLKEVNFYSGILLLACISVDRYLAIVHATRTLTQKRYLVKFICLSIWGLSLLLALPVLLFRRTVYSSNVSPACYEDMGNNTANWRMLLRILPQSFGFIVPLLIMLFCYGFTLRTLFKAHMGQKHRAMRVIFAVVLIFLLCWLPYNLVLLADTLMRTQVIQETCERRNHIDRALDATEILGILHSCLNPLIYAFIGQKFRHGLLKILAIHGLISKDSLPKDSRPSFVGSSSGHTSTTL
Chain of SMAD4 (prey, CIC format) (human) (Q13485 whole entry): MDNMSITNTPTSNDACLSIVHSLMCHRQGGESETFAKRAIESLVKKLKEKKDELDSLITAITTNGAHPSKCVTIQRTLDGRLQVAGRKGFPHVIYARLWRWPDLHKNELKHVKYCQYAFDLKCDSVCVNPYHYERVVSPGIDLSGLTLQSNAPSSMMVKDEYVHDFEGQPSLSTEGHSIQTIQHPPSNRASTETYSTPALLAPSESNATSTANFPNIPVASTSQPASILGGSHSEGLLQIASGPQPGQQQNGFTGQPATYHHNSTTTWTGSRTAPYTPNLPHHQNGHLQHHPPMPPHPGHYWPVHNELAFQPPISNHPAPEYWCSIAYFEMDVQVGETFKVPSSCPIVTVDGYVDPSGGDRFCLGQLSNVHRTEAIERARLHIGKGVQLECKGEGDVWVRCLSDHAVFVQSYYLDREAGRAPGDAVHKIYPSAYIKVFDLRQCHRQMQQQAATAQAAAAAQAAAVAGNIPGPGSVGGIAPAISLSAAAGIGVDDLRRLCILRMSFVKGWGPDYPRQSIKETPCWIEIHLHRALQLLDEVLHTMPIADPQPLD
Chain of RCC1 (bait, IN format) (P18754 whole entry): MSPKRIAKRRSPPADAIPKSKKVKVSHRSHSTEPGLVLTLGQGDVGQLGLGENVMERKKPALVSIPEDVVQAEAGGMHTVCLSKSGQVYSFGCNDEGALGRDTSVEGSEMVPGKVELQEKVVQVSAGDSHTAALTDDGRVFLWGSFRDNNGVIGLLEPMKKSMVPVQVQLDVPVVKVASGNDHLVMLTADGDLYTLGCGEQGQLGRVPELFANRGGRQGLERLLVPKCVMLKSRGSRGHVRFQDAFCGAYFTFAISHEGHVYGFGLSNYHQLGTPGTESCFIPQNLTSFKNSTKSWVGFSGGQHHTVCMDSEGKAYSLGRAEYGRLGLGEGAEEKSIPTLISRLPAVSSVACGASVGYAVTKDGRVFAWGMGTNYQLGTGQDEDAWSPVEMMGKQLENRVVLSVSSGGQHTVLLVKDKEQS

Substance “CXCL1 (bait, IN format) (from UniProt P09341 35-107) (ligand)” has a PLU mean [1] of 0.101, a PLU mean [2] of 0.178 and a PLU mean [3] of 0.27. For the same substance, the PLU mean [4] was 0.103.
“MAD2L1 (bait, IN format) (from UniProt Q13257 1-205)” showed a PLU mean [5] of 0.133, a PLU mean [6] of 2.52 and a PLU mean [7] of 0.0819.
For “RCC1 (bait, IN format) (from UniProt P18754 1-421)”, the PLU mean [8] was 0.748 and the PLU mean [9] was 0.125.
For “SKP1A (bait, IN format) (from UniProt P63208 1-163)”, the PLU mean [10] was 1.26, the PLU mean [11] was 0.376 and the PLU mean [2] was 0.107.
